Reference: US20230165967A1 (TAE LIFE SCIENCES, published 2023)

Columns and labels:
[1] = biological target: human C1q (sigma Cat #C1740) (human, UniProt P02745 23-245; P02746 28-253; P02747 29-245); experiment: ELISA: plate coated with antibody at 1 ug/ml, human C1q titrated 0.625-40 ug/ml, rabbit anti-human C1q then HRP goat anti-rabbit, OD650
Description: Subsequently the plates were washed and blocked with ELISA blocking buffer (PBS containing 1% BSA). […] A slow kinetic substrate solution of tetramethylbenzidine (TMB) was added and the optical density (OD) of the color was measured at 650 nm. The data representing detectable binding of antibodies over the range of test concentrations was analyzed by one-site binding nonlinear regression analysis using GraphPad Prism software.

[2] = biological target: T1, recombinant human soluble ECD of CD64/FCGRIA (human, UniProt P12314 16-292); experiment: ELISA: plate coated with recombinant human CD64/FCGRIA ECD, antibody titrated, HRP goat anti-human Fc, OD650
T1 construct: extracellular domain; also called FcγRI
Description: FcγRI binding was evaluated using an enzyme linked immunoassay (ELISA). Briefly, 96-well ELISA plates were coated with recombinant human soluble ECD of CD64/FCGRIA (Sino Biological, Inc. Beijing, China) in 1×PBS (pH7.4) coating buffer. Subsequently the plates were washed and blocked with ELISA blocking buffer. […] After washing to remove unbound antibodies, the bound antibodies were detected with horseradish peroxidase (HRP) conjugated goat anti-human Fc-specific polyclonal antibody (Jackson ImmunoResearch, West Grove, Pa.). After washing to remove the unbound detection antibody, a slow kinetic substrate solution of tetramethylbenzidine (TMB) was added to the wells where color develops in proportion to the amount of testing samples. The optical density (OD) of the color was measured at 650 nm and was used for determination of the amount of testing samples bound to FcγRI. Detectable binding of antibodies over the range of test concentrations was analyzed using the one-site binding, nonlinear regression analysis with GraphPad Prism.

[3] = biological target: T2, recombinant human soluble ECD of hCD16a/FCGRIIIA (human, UniProt P08637 17-208); experiment: ELISA: plate coated with recombinant human CD16a/FCGRIIIA ECD, antibody titrated 0.005-80 ug/ml, HRP goat anti-human Fc, OD650
T2 construct: extracellular domain; also called FcγRIIIa
Description: FcγRIIIa binding was evaluated using an enzyme linked immunoassay (ELISA). Briefly, 96-well ELISA plates were coated with of recombinant human soluble ECD of hCD16a/[sequence] (Sino Biological, Inc, Beijing, China) in 1×PBS (pH7.4) coating buffer. Subsequently the plates were washed and blocked with ELISA blocking buffer. […] After washing to remove unbound antibodies, the bound antibodies were detected with horseradish peroxidase (HRP) conjugated goat anti-human Fc-specific polyclonal antibody (Jackson ImmunoResearch, West Grove, Pa.). After washing to remove unbound detection antibody, a slow kinetic substrate solution of tetramethylbenzidine (TMB) was added to the wells where color develops in proportion to the amount of testing samples. The optical density (OD) of the color was measured at 650 nm and was used for determination of the amount of testing samples bound to FcγRIIa. Detectable binding of antibodies over the range of test concentrations was analyzed using the one-site binding, nonlinear regression analysis with GraphPad Prism.

[4] = biological target: recombinant human FcRn (Sino Biological) (human, UniProt P55899 24-297; P61769 21-119); experiment: ELISA at pH 6.0: plate coated with recombinant human FcRn, antibody titrated, HRP goat anti-human Fc, OD650
Chain of recombinant human FcRn (Sino Biological) (P55899 24-297 limits assumed, chain 1 of 2): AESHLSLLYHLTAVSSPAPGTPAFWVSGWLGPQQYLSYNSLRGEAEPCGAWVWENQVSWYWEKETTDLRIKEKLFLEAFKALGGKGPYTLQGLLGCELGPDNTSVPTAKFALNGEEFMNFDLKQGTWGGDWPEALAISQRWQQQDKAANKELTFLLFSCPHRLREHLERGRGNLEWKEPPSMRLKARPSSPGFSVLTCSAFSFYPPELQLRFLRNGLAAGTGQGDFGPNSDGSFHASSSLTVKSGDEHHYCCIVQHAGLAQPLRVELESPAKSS
Chain of recombinant human FcRn (Sino Biological) (P61769 21-119 limits assumed, chain 2 of 2): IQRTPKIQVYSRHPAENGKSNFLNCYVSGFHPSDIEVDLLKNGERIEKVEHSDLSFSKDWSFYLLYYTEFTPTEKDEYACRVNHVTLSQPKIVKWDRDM
Description: FcRn binding was evaluated using an enzyme linked immunoassay (ELISA). Briefly, 96-well ELISA plates were coated with of recombinant human FcRn (Sino Biological, Inc, Beijing, China) in 1×PBS (pH 6.0) coating buffer. Subsequently, the plates were washed and blocked with ELISA blocking buffer. […] After washing to remove unbound antibodies, the bound antibodies were detected with horseradish peroxidase (HRP) conjugated goat anti-human Fc-specific polyclonal antibody (Jackson ImmunoResearch, West Grove, Pa.). After washing to remove unbound detection antibody, a slow kinetic substrate solution of tetramethylbenzidine (TMB) was added to the wells where color develops in proportion to the amount of testing samples. The optical density (OD) of the color was measured at 650 nm and was used for determination of the amount of testing samples bound to FcRn. Detectable binding of antibodies over the range of test concentrations was analyzed using the one-site binding, nonlinear regression analysis with GraphPad Prism.

T1 sequence (P12314 16-292): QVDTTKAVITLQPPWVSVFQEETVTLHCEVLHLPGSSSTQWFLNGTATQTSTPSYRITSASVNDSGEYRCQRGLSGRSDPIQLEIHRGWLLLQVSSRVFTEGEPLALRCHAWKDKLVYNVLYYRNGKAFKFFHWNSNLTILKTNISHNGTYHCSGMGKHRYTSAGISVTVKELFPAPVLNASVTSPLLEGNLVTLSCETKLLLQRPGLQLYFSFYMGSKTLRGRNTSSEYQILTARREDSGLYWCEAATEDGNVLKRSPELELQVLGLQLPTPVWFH
Chain of human C1q (sigma Cat #C1740) (P02745 23-245 limits assumed, chain 1 of 3): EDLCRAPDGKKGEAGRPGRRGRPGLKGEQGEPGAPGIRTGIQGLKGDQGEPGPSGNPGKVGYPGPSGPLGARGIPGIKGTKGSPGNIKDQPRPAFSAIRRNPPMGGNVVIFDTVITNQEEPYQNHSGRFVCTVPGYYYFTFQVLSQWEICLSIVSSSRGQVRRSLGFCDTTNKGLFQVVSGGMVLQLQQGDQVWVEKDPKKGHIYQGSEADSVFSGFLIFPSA
Chain of human C1q (sigma Cat #C1740) (P02746 28-253 limits assumed, chain 2 of 3): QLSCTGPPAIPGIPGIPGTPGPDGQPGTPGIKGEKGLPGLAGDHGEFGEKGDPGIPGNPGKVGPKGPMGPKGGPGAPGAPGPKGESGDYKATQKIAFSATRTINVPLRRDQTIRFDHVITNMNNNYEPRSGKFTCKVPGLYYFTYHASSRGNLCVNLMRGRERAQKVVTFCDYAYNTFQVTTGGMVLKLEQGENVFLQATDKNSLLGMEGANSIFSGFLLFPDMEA
Chain of human C1q (sigma Cat #C1740) (P02747 29-245 limits assumed, chain 3 of 3): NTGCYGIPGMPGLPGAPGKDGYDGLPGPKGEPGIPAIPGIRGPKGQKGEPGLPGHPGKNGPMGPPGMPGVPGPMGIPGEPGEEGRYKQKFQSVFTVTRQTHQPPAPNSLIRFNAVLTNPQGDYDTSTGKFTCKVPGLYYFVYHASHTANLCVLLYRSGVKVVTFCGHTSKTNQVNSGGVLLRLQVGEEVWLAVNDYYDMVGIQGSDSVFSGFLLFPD
T2 sequence (P08637 17-208): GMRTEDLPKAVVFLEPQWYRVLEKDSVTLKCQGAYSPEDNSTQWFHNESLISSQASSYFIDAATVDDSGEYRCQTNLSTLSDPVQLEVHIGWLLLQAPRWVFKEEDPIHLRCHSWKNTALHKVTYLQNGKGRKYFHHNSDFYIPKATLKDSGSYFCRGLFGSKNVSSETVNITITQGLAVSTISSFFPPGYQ

B1: Anti-EGFR Ab No. 1 L234A, L235A, L328C (antibody, human IgG1, kappa, L234A L235A)
heavy: QVQLQESGPGLVKPSETLSLTCTVSGGSVSSGDYYWTWIRQSPGKGLEWIGHIYYSGNTNYNPSLKSRLTISIDTSKTQFSLKLSSVTAADTAIYYCVRDRVTGAFDIWGQGTMVTVSSASTKGPSVFPLAPSSKSTSGGTAALGCLVKDYFPEPVTVSWNSGALTSGVHTFPAVLQSSGLYSLSSVVTVPSSSLGTQTYICNVNHKPSNTKVDKKVEPKSCDKTHTCPPCPAPEAAGGPSVFLFPPKPKDTLMISRTPEVTCVVVDVSHEDPEVKFNWYVDGVEVHNAKTKPREEQYNSTYRVVSVLTVLHQDWLNGKEYKCKVSNKACPAPIEKTISKAKGQPREPQVYTLPPSREEMTKNQVSLTCLVKGFYPSDIAVEWESNGQPENNYKTTPPVLDSDGSFFLYSKLTVDKSRWQQGNVFSCSVMHEALHNHYTQKSLSLSPGK
light: not shown
notes: Fc variant; wild-type light chain; also called Anti-EGFR Mab No. 1 triple mutant; triple mutation L234A, L235A, and L328C
[1]
  binding result: binds
[2]
  binding result: no binding (tested: 30 ug/ml)
[3]
  binding result: no binding (tested: 80 ug/ml)
[4]
  binding result: binds
